doi:10.1101/2021.03.09.434543
Blank lines part the entries; values can stand above or below the molecule they belong to.

What was measured:
[1] = target: OsFD7, FLIM-FRET fusion (rice (Oryza sativa)); assay: FRET or BRET
[2] = target: OsFD7 (OsbZIP62)-GST;OsFTL1-GST (Oryza sativa (rice);Oryza sativa (rice), UniProt B7F384;B7ELI3 1-274;1-276, |); assay: EMSA
[3] = target: OsFD7 (OsbZIP62)-GST;OsFTL1-GST;OsGF14b-GST (Oryza sativa (rice);Oryza sativa …, UniProt B7F384;B7ELI3;Q7XTE8 1-274;1-276;1-262, ||); assay: EMSA
OsFTL1-GST = OsFTL1-GST (Oryza sativa (rice), UniProt B7ELI3 1-276); assay: EMSA
OsGF14b-GST = OsGF14b-GST (Oryza sativa (rice), UniProt Q7XTE8 1-262); assay: EMSA
OsFD7 (OsbZIP62)-GST = target: T1, OsFD7 (OsbZIP62)-GST (Oryza sativa (rice), UniProt B7F384 1-274); assay: EMSA
T1 sequence: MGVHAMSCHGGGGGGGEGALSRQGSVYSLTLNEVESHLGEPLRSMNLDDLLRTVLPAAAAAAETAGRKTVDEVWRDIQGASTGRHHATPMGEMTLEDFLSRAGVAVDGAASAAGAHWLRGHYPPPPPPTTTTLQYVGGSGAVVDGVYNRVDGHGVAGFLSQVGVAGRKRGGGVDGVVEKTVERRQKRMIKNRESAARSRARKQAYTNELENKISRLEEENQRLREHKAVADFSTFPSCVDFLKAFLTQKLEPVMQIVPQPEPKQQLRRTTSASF

OsGF14b-GST, sequence (Q7XTE8 whole entry): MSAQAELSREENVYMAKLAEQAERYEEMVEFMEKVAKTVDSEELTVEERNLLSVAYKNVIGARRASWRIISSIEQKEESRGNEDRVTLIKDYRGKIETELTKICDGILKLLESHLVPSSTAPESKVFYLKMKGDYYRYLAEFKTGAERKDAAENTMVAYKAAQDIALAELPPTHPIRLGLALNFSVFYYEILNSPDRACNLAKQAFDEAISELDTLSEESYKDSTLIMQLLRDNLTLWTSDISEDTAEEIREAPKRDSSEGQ

FRET efficiency [1]: 15.1%
Molecule: Hd3a, FLIM-FRET fusion (from UniProt Q93WI9 1-179) (natural protein)

FRET efficiency [1]: 23.3%
Molecule: OsFTL1, FLIM-FRET fusion (natural protein)

B1: GB oligo (dsDNA)
DNA 1: GTCACATACACGTGTCAGCTCAG
DNA 2: CTGAGCTGACACGTGTATGTGAC
binding result [2]: binds
binding result [3]: binds
binding result (OsFTL1-GST): no binding
binding result (OsGF14b-GST): no binding
binding result (OsFD7 (OsbZIP62)-GST): binds
